{
  "source": "patent US20260209294A1",
  "about": "“USE OF RECOMBINANT PROTEIN IN PREPARING DRUG FOR INHIBITING ANEURYSM” (HUAZHONG UNIVERSITY OF SCIENCE AND TECHNOLOGY, priority 2022, published 2026)",
  "molecules": {"B1": {"name": "AGGF1 protein: recombinant human AGGF1 protein with His tag, SEQ ID NO:1, expressed from pet28-AGGF1 in Escherichia coli BL21 (DE3) (protein, listed as Homo sapiens)", "chain": "MASEAPSPPRSPPPPTSPEPELAQLRRKVEKLERELRSCKRQVREIEKLLHHTERLYQNAESNNQELRTQVEELSKILQRGRNEDNKKSDVEVQTENHAPWSISDYFYQTYYNDVSLPNKVTELSDQQDQAIETSILNSKDHLQVENDAYPGTDRTENVKYRQVDHFASNSQEPASALATEDTSLEGSSLAESLRAAAEAAVSQTGFSYDENTGLYFDHSTGFYYDSENQLYYDPSTGIYYYCDVESGRYQFHSRVDLQPYPTSSTKQSKDKKLKKKRKDPDSSATNEEKDLNSEDQKAFSVEHTSCNEEENFANMKKKAKIGIHHKNSPPKVTVPTSGNTIESPLHENISNSTSFKDEKIMETDSEPEEGEITDSQTEDSYDEAITSEGNVTAEDSEDEDEDKIWPPCIRVIVIRSPVLQIGSLFIITAVNPATIGREKDMEHTLRIPEVGVSKFHAEIYFDHDLQSYVLVDQGSQNGTIVNGKQILQPKTKCDPYVLEHGDEVKIGETVLSFHIHPGSDTCDGCEPGQVRAHLRLDKKDESFVGPTLSKEEKELERRKELKKIRVKYGLQNTEYEDEKTLKNPKYKDRAGKRREQVGSEGTFQRDDAPASVHSEITDSNKGRKMLEKMGWKKGEGLGKDGGGMKTPIQLQLRRTHAGLGTGKPSSFEDVHLLQNKNKKNWDKARERFTENFPETKPQKDDPGTMPWVKGTLE", "modifications": "His tag"}},
  "key": {"[1]": {"biological_target": "T1, integrin α7 / LAP-TGF-β1 interaction (Homo sapiens, UniProt Q13683)", "T1 construct": "FLAG; GFP; expressed in transfected cells; host or cells: HEK293T", "T1 sequence (Q13683 34-1181)": "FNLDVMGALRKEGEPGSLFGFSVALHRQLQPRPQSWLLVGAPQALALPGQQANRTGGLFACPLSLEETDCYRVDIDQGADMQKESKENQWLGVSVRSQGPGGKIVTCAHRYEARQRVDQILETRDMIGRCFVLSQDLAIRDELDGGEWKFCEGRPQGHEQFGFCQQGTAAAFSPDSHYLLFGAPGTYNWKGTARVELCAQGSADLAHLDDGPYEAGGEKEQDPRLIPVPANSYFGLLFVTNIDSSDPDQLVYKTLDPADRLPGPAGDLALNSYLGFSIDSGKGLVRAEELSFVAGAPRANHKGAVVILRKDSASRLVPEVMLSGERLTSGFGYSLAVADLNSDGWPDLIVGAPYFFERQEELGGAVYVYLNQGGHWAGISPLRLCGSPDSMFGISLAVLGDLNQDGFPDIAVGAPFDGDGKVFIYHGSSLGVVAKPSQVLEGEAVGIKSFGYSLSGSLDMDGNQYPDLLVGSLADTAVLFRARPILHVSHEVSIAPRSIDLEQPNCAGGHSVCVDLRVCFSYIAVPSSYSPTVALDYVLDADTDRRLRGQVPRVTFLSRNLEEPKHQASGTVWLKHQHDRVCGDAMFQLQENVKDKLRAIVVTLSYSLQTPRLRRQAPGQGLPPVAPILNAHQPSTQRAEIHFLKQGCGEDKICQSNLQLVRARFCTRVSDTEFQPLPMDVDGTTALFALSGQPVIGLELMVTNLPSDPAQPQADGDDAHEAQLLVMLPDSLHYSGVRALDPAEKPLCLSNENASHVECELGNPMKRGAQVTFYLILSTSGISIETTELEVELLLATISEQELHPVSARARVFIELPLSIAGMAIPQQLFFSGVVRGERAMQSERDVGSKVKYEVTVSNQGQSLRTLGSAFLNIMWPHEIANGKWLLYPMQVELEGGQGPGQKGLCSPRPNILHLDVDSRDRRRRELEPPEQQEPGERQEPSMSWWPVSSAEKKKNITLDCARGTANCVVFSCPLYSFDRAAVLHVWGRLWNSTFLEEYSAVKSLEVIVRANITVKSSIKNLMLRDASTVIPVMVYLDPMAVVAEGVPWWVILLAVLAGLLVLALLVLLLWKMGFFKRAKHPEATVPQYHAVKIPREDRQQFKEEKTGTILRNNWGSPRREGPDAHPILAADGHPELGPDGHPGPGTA", "T1 sequence (P05556 21-798 partner)": "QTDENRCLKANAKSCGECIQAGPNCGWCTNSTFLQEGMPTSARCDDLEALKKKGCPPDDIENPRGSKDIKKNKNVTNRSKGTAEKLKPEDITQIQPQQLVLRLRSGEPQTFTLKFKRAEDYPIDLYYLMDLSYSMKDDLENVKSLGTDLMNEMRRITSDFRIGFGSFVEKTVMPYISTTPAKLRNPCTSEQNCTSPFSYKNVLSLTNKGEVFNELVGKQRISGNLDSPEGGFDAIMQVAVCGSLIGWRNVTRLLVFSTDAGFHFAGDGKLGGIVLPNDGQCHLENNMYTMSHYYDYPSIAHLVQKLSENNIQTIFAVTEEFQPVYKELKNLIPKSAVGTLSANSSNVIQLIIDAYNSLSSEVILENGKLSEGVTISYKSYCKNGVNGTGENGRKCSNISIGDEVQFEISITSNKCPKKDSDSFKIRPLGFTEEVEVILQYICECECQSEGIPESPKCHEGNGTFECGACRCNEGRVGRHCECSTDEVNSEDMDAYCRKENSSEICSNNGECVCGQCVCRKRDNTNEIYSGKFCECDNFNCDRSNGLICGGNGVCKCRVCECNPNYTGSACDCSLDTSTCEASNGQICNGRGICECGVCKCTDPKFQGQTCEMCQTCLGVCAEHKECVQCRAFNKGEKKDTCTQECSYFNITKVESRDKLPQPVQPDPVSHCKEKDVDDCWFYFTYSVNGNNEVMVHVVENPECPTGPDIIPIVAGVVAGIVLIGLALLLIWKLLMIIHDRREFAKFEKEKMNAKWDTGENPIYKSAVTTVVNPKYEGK", "assay": "Co-IP of LAP-TGF-β1-GFP and integrin α7-FLAG in HEK293T cells", "assay_type": "cell-based", "conditions": "AGGF1 overexpression or stimulation for 24 hours", "text": "FIG. 10 illustrates that the integrin α7 interacts with LAP-TGF-β1 via an RGD sequence, and AGGF1 enhances this interaction. […] Quantitative data of a LAP-TGF-β1-GFP/α7-FLAG ratio are plotted as bar graphs on the right. […] Quantitative data of the LAP-TGF-β1-GFP/α7-FLAG ratio are plotted as bar graphs on the right. *, P<0.05; **, P<0.01; ***, P<0.001; n=3/group."}, "[2]": {"tested_on": "BAPN-induced aortic aneurysm", "assay": "β-aminopropionitrile (BAPN)-induced aortic aneurysm model", "assay_type": "in vivo, C57BL/6 male mice", "conditions": "BAPN-fed mice", "text": "FIG. 14 depicts an AGGF1 treatment for a β-aminopropionitrile (BAPN)-induced aortic aneurysm. […] The bar graphs below show the intimal thickness (1st image), the adventitia thickness (2nd image), and the total carotid artery wall thickness (3rd image). […] The bar graphs on the right show the percentage of the positive area for respective immunostaining quantifications. […] The GAPDH serves as a loading control. *, P<0.05; **, P<0.01; ***, P<0.001; n≥8/group for mouse studies, other sample sizes n=4/group.\nβ-aminopropionitrile is a lysyl oxidase (LOX) inhibitor that is readily soluble in water. Three-week-old mice fed with 0.25% BAPN have a very high incidence of the thoracic aortic aneurysm after 4 weeks. Three-week-old C57BL/6 male mice were divided into 4 groups, with ultrasound detection of the aorta on day 28, followed by euthanasia and collection of the aorta for Western Blotting experiments and histochemical staining."}, "[3]": {"tested_on": "TAC-induced mouse aneurysm model", "assay": "TAC (transverse aortic constriction)-induced aneurysm model, i.p. recombinant AGGF1 or AGGF1-RDDdel protein", "assay_type": "in vivo, C57BL/6 mice", "conditions": "0.5 mg/kg i.p., day 21"}, "[4]": {"tested_on": "aortic aneurysm induced by Fbn1^C1041G/+ mutation", "assay": "AGGF1 treatment of spontaneous aortic aneurysm in Fbn1 C1041G/+ mutant mice", "assay_type": "in vivo", "text": "FIG. 13 depicts an AGGF1 treatment for a spontaneous aortic aneurysm in FbnC1041G/+ mutant mice. […] The bar graph on the right illustrates the luminal diameter of the ascending aortic. […] The GAPDH serves as a loading control. […] The bar graphs on the right indicate the percentage of the positive area for the respective immunostaining quantification. *, P<0.05; **, P<0.01; ***, P<0.001; n=8/group for mouse studies, other sample sizes n=4/group.\nThe present disclosure obtained the previously published Fbn1^C1041G/+ mutant mice from Tongji Hospital. Compared with the wild-type mice, we detected spontaneous aortic expansion in these mice at week 10, resulting in the aortic aneurysm. After obtaining these mice, at week 10, mice were intraperitoneally injected with Buffer or AGGF1 protein, and the injection continued until week 18. At week 18, mice underwent ultrasound examination, then were euthanized and their aortas were collected for Western Blotting experiments and histochemical staining."}, "[5]": {"tested_on": "mature TGFβ1 in HEK293T cells", "assay": "ELISA of TGF-β1 levels in culture medium of HEK293T cells transfected with LAP-TGF-β1-FLAG and integrin α7-FLAG", "assay_type": "cell-based", "conditions": "purified protein 24 hours", "method": "The β-actin serves as a loading control. […] The GAPDH serves as a loading control. […] The mRNA is extracted using the Trizol method and reverse transcribed to obtain cDNA. […] Cells are transfected with different plasmids of LAP-TGF-β1-FLAG and the integrin α7-FLAG, and treated with the purified AGGF1 or AGGF1-RDDdel for 24 hours, with grouping as shown in FIG. K. *, P<0.05; **, P<0.01; ***, P<0.001; n≥3/group.\nIn vitro experiments were performed using aortic smooth muscle cells and HEK293T cells. As shown in A-C of FIG. 8 and A-F of FIG. 9, whether with recombinant AGGF1 protein, AGGF1-FLAG overexpression, or AGGF1 silencing, Western blot analysis and ELISA experimental results verified that AGGF1 inhibits the TGFβ1 signaling pathway (Smad3 and ERK1/2) and the level of the mature TGFβ1. […] In the Western blot analysis of FIG. 10, it was verified that LAP-TGFβ1 interacts with integrin α7 through the RGD sequence, which is also the molecular mechanism by which integrin α7 inhibits TGFβ1."}},
  "data": [
    {"molecule": "B1", "values": [
      {"measurement": "interaction of integrin α7 with LAP-TGF-β1 (LAP-TGF-β1-GFP/α7-FLAG ratio)", "setting": "[1]", "value": "enhances"},
      {"measurement": "incidence of BAPN-induced aortic dissection", "setting": "[2]", "value": "no effect"},
      {"measurement": "level of the mature TGFβ1 (Western blot, ascending aorta)", "setting": "[2]", "value": "inhibited"},
      {"measurement": "p-ERK (Western blot, ascending aorta)", "setting": "[2]", "value": "inhibited"},
      {"measurement": "p-Smad2 (Western blot, ascending aorta)", "setting": "[2]", "value": "inhibited"},
      {"measurement": "p-Smad3 (Western blot, ascending aorta)", "setting": "[2]", "value": "inhibited"},
      {"measurement": "survival rate of aneurysm model mice", "setting": "[2]", "value": "significantly improve"},
      {"measurement": "aortic inflammation", "setting": "[2]; day 28", "value": "significantly inhibited"},
      {"measurement": "aortic remodeling", "setting": "[2]; day 28", "value": "significantly inhibited"},
      {"measurement": "aortic thickening (H&E staining)", "setting": "[2]; day 28", "value": "significantly inhibited"},
      {"measurement": "vascular expansion (ascending aorta, ultrasound)", "setting": "[2]; day 28", "value": "inhibitory effect"},
      {"measurement": "level of the mature TGFβ1 (Western blot, ascending aorta, FIG. 7)", "setting": "[3]", "value": "inhibit"},
      {"measurement": "p-ERK1/2 (Western blot, ascending aorta, FIG. 7)", "setting": "[3]", "value": "inhibit"},
      {"measurement": "p-Smad3 (Western blot, ascending aorta, FIG. 7)", "setting": "[3]", "value": "inhibit"},
      {"measurement": "expansion of the ascending aorta", "setting": "[4]; i.p. from week 10 to week 18, ultrasound at week 18", "value": "significantly inhibit"},
      {"measurement": "increase in αSMA/CD68/MCP1 levels (immunostaining positive areas)", "setting": "[4]; week 18", "value": "significantly inhibit"},
      {"measurement": "level of mature TGFβ1 (Western blot, ascending aorta)", "setting": "[4]; week 18", "value": "inhibited"},
      {"measurement": "p-ERK (Western blot, ascending aorta)", "setting": "[4]; week 18", "value": "inhibited"},
      {"measurement": "p-Smad2 (Western blot, ascending aorta)", "setting": "[4]; week 18", "value": "inhibited"},
      {"measurement": "p-Smad3 (Western blot, ascending aorta)", "setting": "[4]; week 18", "value": "inhibited"},
      {"measurement": "thickening of the vascular media", "setting": "[4]; week 18", "value": "significantly inhibit"},
      {"measurement": "inhibition of mature TGFβ1 by integrin α7", "setting": "[5]", "value": "enhance"}
    ]}
  ]
}
